Test results taken from patent US20170248602A1.
Positions count from the first letter of the chain named. Where two headings read alike, the source gives them in different places.

B1: α-SNAP-25 mouse monoclonal antibody 2E2A6 (antibody, V domains shown)
VH: QVQLQQSDAELVKPGASVKISCRASGYTFTDHSIHWVKQQPGQGLEWIGYIFPGNGNIEYNDKFKGKATLTADKSSGTAYMQLNSLTSEDSAVYFCKRMGYWGQGTSVTVSS
VL: DVLMTQTPLTLSVTIGQPASISCKSSQSLLYTNGKTYLTWLFQRPGQSPKRLIYLVSELDSGVPDRFSGSGSGTDFTLEITRVEAEDLGVYYCLQSAHFPFTFGSGTKLEIKR
B2: α-SNAP-25 mouse monoclonal antibody 3C1A5 (antibody, V domains shown)
VH: QVKLQESGAELVKPGASVKISCKASGYTFTDHSIHWVKQKPGQGLEWIGYLFPGNGNFEYNEKFKGKATLTADKSSSTVYMYLNSLTSEDSAVYFCKRMGYWGQGTTVTVSS
VL: B1 VL with L3V, Y31N, F42I, K50Q, E58K, E79K, T81S, A97S
B3: α-SNAP-25 mouse monoclonal antibody 1D3B8 (antibody, V domains shown)
VH: QVKLQESGAELVKPGASVKISCKASGYIFTDHALHWVRQKPEQGLEWIGYIFPGNGNIEYNEKFKGKATLTADKSSSTAYMQLNSLTSGDSAMYFCKKMDYWGQGTTVTVSS
VL: DVLMTQTPLSLPVSLGDQASISCRSSQSIVHSNGNTYLEWYLQKPGQSPKLLIYKVSNRFSGVPDRFSGSGSGTDFTLKISRVEAEDLGVYYCFQGSHVPPTFGAGTKLELKR
B4: α-SNAP-25 mouse monoclonal antibody 2C9B10 (antibody, V domains shown)
VH: B2 VH with V79A, Y82H, R98K, G100D
VL: DIQMTQSPASLSASVGETVTITCRTTENIYSYFVWSQQRQGKSPQLRVYNAKSLAEGVPSSFNVSVSGTQFSLKINSLQPEDFGTYHCQHHYGTPYTFGGGTRLEIRR

Assays:
[1] = target: T1, SNAP-25 peptide comprising amino acids 134-197 of SEQ ID NO:5 (human)
[2] = target: T1, SNAP-25 peptide comprising amino acids …; test: SPR (BIAcore 3000), peptide on CM5 chip, 1:1 fit

Binder | Kd [1] | koff [1] | kon [1] | Kd [2] | koff [2] | kon [2]
B1 | 0.405 nM | 6.74e-05 s⁻¹ | 166000 M⁻¹ s⁻¹ | 0.09 nM | 0.000153 s⁻¹ | 1.7e+06 M⁻¹ s⁻¹
B2 |  |  |  | 1.33 nM | 0.000288 s⁻¹ | 217000 M⁻¹ s⁻¹
B3 |  |  |  | 0.05 nM | 5.78e-05 s⁻¹ | 1.06e+06 M⁻¹ s⁻¹
B4 |  |  |  | 27.1 nM | 0.000311 s⁻¹ | 11500 M⁻¹ s⁻¹
